Consider 94 variants from the supplement of paper PMC10567573.

To fix the notation:
B1: ZNF8 (parent)
chain: KPYTCSVCGKSFSRTTCLFLHLRT
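Note: lentivirally expressed fusions sorted by FACS into six bins by GFP to DsRed ratio, PSI derived from sequencing read proportions per bin multiplied by bin number.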

The data set covers variants of B1. Nature of the data set: protein stability index of a GFP-peptide fusion (GPS, HEK-293T) (PSI 1-6); higher = more stable. To be noted: c terminus: a fixed tail appended.
In the case of KLYTCSVCGKSFSRTTCLFLHLRT [P2L], the protein stability index is 1.74.

Turning to KWYTCSVCGKSFSRTTCLFLHLRT [P2W], the protein stability index stood at 2.42. On to KKYTCSVCGKSFSRTTCLFLHLRT [P2K], for which the protein stability index was found to be 2.05. With KNYTCSVCGKSFSRTTCLFLHLRT [P2N], the protein stability index is 2.14. Take KYYTCSVCGKSFSRTTCLFLHLRT [P2Y]: the protein stability index is 2.09. Take KEYTCSVCGKSFSRTTCLFLHLRT [P2E]: the protein stability index came to 2.55. On to KVYTCSVCGKSFSRTTCLFLHLRT [P2V], for which the protein stability index was 2.46.

For KAYTCSVCGKSFSRTTCLFLHLRT [P2A], the protein stability index worked out at 2.24. To KIYTCSVCGKSFSRTTCLFLHLRT [P2I] belongs 2.08; to KPYTCSPCGKSFSRTTCLFLHLRT [V7P], 2.7; to KPYTCSSCGKSFSRTTCLFLHLRT [V7S], 2.04.

As for KPYTCSWCGKSFSRTTCLFLHLRT [V7W], the protein stability index is 1.85. For KPYTCSMCGKSFSRTTCLFLHLRT [V7M], the protein stability index came to 2.29. As for KPYTCSQCGKSFSRTTCLFLHLRT [V7Q], the protein stability index came out at 3.32. For KPYTCSKCGKSFSRTTCLFLHLRT [V7K], the protein stability index was found to be 1.75. As for KPYTCSFCGKSFSRTTCLFLHLRT [V7F], the protein stability index worked out at 2.8. On to KPYTCSHCGKSFSRTTCLFLHLRT [V7H], for which the protein stability index was 1.44.

On to KPYTCSECGKSFSRTTCLFLHLRT [V7E], for which the protein stability index was 2.09.

Consider KPYTCSYCGKSFSRTTCLFLHLRT [V7Y], for which the protein stability index is 2.3. On to KPYTCSVCGKSFSRTTCLFPHLRT [L20P], for which the protein stability index came to 2.27. The result for KPYTCSVCGKSFSRTTCLFSHLRT [L20S] reads 2.17; that for KPYTCSVCGKSFSRTTCLFQHLRT [L20Q], 2.96; that for KPYTCSVCGKSFSRTTCLFIHLRT [L20I], 1.99. To KPYTCSVCGKSFSRTTCLFRHLRT [L20R] belongs 2.42; to KPYTCSVCGKSFSRTTCLFHHLRT [L20H], 2.79; to KPYTCSVCGKSFSRTTCLFWHLRT [L20W], 1.39.

KPYTCSVCGKSWSRTTCLFLHLRT [F12W]: the protein stability index turned out to be 1.72. The result for KPYTCSVCGKSNSRTTCLFLHLRT [F12N] reads 2.4; that for KPYTCSVCGKSGSRTTCLFLHLRT [F12G], 2.27; that for KPYTCSVCGKSLSRTTCLFLHLRT [F12L], 1.83.

Regarding KPYTCSVCGKSASRTTCLFLHLRT [F12A], the protein stability index stood at 1.76.

Turning to KPYTCSVCGKSHSRTTCLFLHLRT [F12H], the protein stability index worked out at 2.35.

Regarding KPYTCSVCGKSSSRTTCLFLHLRT [F12S], the protein stability index worked out at 1.87. For the variant KPYTCSVCGKSFSRTYCLFLHLRT [T16Y], the protein stability index came out at 2.03. With KPYTCSVCGKSFSRTDCLFLHLRT [T16D], the protein stability index came out at 2.27.

With KPYTCSVCGKSFSRTMCLFLHLRT [T16M], the protein stability index came to 1.98. To KPYTCSVCGKSFSRTVCLFLHLRT [T16V] belongs 1.68; to KPYTCSVCGKSFSRTCCLFLHLRT [T16C], 1.94. The result for KPYTCSVCGKSFSRTTCYFLHLRT [L18Y] reads 2.43; that for KPYTCSVCGKSFSRTTCVFLHLRT [L18V], 2.27; that for KPYTCSVCGKSFSRTTCWFLHLRT [L18W], 2.18. For KPYTCSVCGKSFSRTTCDFLHLRT [L18D], the protein stability index was 2.2. Consider KPYTCSVCGKSFSRTTCIFLHLRT [L18I], for which the protein stability index was 2.49.

In the case of KPYTCSVCGKSFSRTTCQFLHLRT [L18Q], the protein stability index was 2.11. For KPYTCSVCGKSFSRTTCEFLHLRT [L18E], the protein stability index is 2.45. As to KPYTCSVCGKSFSRTTCMFLHLRT [L18M], the protein stability index turned out to be 2.33. Turning to KPYTCSVCGTSFSRTTCLFLHLRT [K10T], the protein stability index stood at 2.25.

With KPYTCSVCGLSFSRTTCLFLHLRT [K10L], the protein stability index worked out at 1.94.

Turning to KPYTCSVCGVSFSRTTCLFLHLRT [K10V], the protein stability index came out at 1.83. For KPYTCSVCGPSFSRTTCLFLHLRT [K10P], the protein stability index came to 2.84. For KPYTCSVCGNSFSRTTCLFLHLRT [K10N], the protein stability index was 2.

Take KPYTCSVCNKSFSRTTCLFLHLRT [G9N]: the protein stability index was determined as 1.49. Regarding KPYTCSVCPKSFSRTTCLFLHLRT [G9P], the protein stability index worked out at 1.72. For KPYTCSVCFKSFSRTTCLFLHLRT [G9F], the protein stability index is 2.12. For the variant KPYTCSVCMKSFSRTTCLFLHLRT [G9M], the protein stability index came out at 2.38. With KPYTCSVCDKSFSRTTCLFLHLRT [G9D], the protein stability index amounted to 1.8. With KPYTCSVCSKSFSRTTCLFLHLRT [G9S], the protein stability index amounted to 1.72.

On to KPYTCSVCTKSFSRTTCLFLHLRT [G9T], for which the protein stability index stood at 1.5. The result for KPYTCSVCRKSFSRTTCLFLHLRT [G9R] reads 2.2; that for KPYTCSVCIKSFSRTTCLFLHLRT [G9I], 2.92; that for KPYTCMVCGKSFSRTTCLFLHLRT [S6M], 1.63. To KPYTCFVCGKSFSRTTCLFLHLRT [S6F] belongs 2.08; to KPYTCHVCGKSFSRTTCLFLHLRT [S6H], 2.15; to KPYTCIVCGKSFSRTTCLFLHLRT [S6I], 1.41.

For the variant KPYTCCVCGKSFSRTTCLFLHLRT [S6C], the protein stability index was found to be 1.71. The result for KPYTCKVCGKSFSRTTCLFLHLRT [S6K] reads 2.46; that for KPYTCPVCGKSFSRTTCLFLHLRT [S6P], 2.25; that for KPYTCGVCGKSFSRTTCLFLHLRT [S6G], 2.48.

Regarding KPYTCNVCGKSFSRTTCLFLHLRT [S6N], the protein stability index came to 2.39. For KPYTCVVCGKSFSRTTCLFLHLRT [S6V], the protein stability index was 2.45. For KPYTCDVCGKSFSRTTCLFLHLRT [S6D], the protein stability index is 2.28. Consider KPYTCAVCGKSFSRTTCLFLHLRT [S6A], for which the protein stability index stood at 2.4.

As to KPYTCEVCGKSFSRTTCLFLHLRT [S6E], the protein stability index was determined as 1.85. With KPYECSVCGKSFSRTTCLFLHLRT [T4E], the protein stability index is 1.77. The result for KPYSCSVCGKSFSRTTCLFLHLRT [T4S] reads 1.48; that for KPYRCSVCGKSFSRTTCLFLHLRT [T4R], 2.4. With KPYCCSVCGKSFSRTTCLFLHLRT [T4C], the protein stability index came to 2.1. KPYICSVCGKSFSRTTCLFLHLRT [T4I]: the protein stability index is 2.36.

KPYYCSVCGKSFSRTTCLFLHLRT [T4Y]: the protein stability index is 1.63. As to KPYMCSVCGKSFSRTTCLFLHLRT [T4M], the protein stability index amounted to 1.83. As for KPYTCSVCGKSFSRTTCLFLHLRE [T24E], the protein stability index worked out at 1.67. For KPYTCSVCGKSFSRTTCLFLHLRV [T24V], the protein stability index worked out at 2.2. In the case of KPYTCSVCGKSFSRTTCLFLHLRL [T24L], the protein stability index is 1.58. As for KPYTCSVCGKSFSRTTCLFLHLRH [T24H], the protein stability index is 2.96.

On to KPYTCSVCGKSFSRTTCLFLHLRR [T24R], for which the protein stability index was determined as 2.04. To KPYTCSVCGKSFSRTTCLFLHLRC [T24C] belongs 2.07; to KPYTCSVCGKSFSRTTCLFLHLRF [T24F], 2.02.

In the case of KPYTCSVCGKSFSRTTCLFLHLRG [T24G], the protein stability index worked out at 2.37. As to KPYTCSVCGKSFSRTTCLFLHLRI [T24I], the protein stability index came out at 1.52. As to KPYTCSVCGKSFERTTCLFLHLRT [S13E], the protein stability index worked out at 2.57. KPYTCSVCGKSFIRTTCLFLHLRT [S13I]: the protein stability index amounted to 1.67. The result for KPYTCSVCGKSFYRTTCLFLHLRT [S13Y] reads 1.75; that for KPYTCSVCGKSFPRTTCLFLHLRT [S13P], 2.16; that for KPYTCSVCGKSFNRTTCLFLHLRT [S13N], 1.76.
